Assay results from article PMC5383521 (Journal of molecular recognition : JMR, 2016).

Tests used:
[1] = target: murine monoclonal antibody LA-2, wild type (mouse); test: SPR
[2] = target: Outer surface protein A (OspA) from Borrelia burgdorferi B31, wild type (Borrelia burgdorferi B31, UniProt P0CL66); test: SPR

Q: With “OspA (B. burgdorferi B31) A215K (from UniProt P0CL66 17-273) (natural protein)” as the molecule, how does the fold increase of affinity against wild type OspA [1] read?
A: The fold increase of affinity against wild type OspA was 7.5 fold.

B1: murine monoclonal antibody LA-2, wild type (antibody, V domains shown)
VH: QIQLVQSGPELKKPGETVKISCKASGYTFTDYSMYWVKQAPGKGLKRMGWINTETGEPTYADDFKGRFALSLDTSASTAYLHISNLKNEDTATYFCARGLDSWGQGTSVTVSS
VL: DIQMTQSPSSLSATLGGKVTITCKASQDINKYIAWYQHKPGKGPRLLIHYTSTLQPGNPSRFSGSGSGRDYSFSISNLEAEDIAIYYCLQYDNLQRTFGGGTKVEIK
Q: Does B1 bind [2]?
A: Result: binds

B2: LA-2 H49A-Light (antibody, V domains shown)
VH: QIQLVQSGPELKKPGETVKISCKASGYTFTDYSMYWVKQAPGKGLKRMGWINTETGEPTYADDFKGRFALSLDTSASTAYLHISNLKNEDTATYFCARGLDSWGQGTSVTVSS
VL: DIQMTQSPSSLSATLGGKVTITCKASQDINKYIAWYQHKPGKGPRLLIAYTSTLQPGNPSRFSGSGSGRDYSFSISNLEAEDIAIYYCLQYDNLQRTFGGGTKVEIK
Q: Does B2 bind [2]?
A: Result: no binding
